Results reported in article PMC8402870.
Where two headings read alike, the source gives them in different places.

Key:
[1] = test system: T1, Pf4r (repressor C) (Pseudomonas aeruginosa PAO1 (Pf4 filamentous prophage)), ORF:4ff4b857; test: EMSA
T1 sequence: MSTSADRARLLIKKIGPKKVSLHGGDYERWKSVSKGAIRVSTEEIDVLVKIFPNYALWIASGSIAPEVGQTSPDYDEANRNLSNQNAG

[2] = target: Pf4r, repressor C protein of the Pf4 filamentous phage (wild type) (Pf4 filamentous phage (prophage of Pseudomonas aeruginosa PAO1)); test: SEC-MALS; Superdex 75 5/150 equilibrated with PBS; samples prepared in 20 mM HEPES pH 7.5, 300 mM NaCl, 10% glycerol, 2 mM TCEP; 50 uL loaded at 20 mg/mL; monomer to dimer
[3] = target: Pf6r, repressor of the Pf6 filamentous phage (wild type) (Pf6 filamentous phage (prophage of Pseudomonas aeruginosa PAO1)); test: as above

Substance | binding [1] | other results
TTTTGGGGCCGATTTTCTTGATTAATAGTCTTGCTCTATCGGCTGACGTGCTCATATAGAAATTTATTCCGGTGAAATAGTTGCCCTGACGTGGCTTTGGGGAAATAATTTCTCCAGGGTAATTATTTCTCTA (double strand) [Ppf4r-G>T] | binds more weakly | 
Pf4r, repressor C protein of the Pf4 filamentous phage (wild type) (natural protein) |  | stoichiometry N [2]: 2
TTTTGGGGCCGATTTTCTTGATTAATAGTCTTGCTCTATCGGCTGACGTGCTCATATAGAAATTTATTCCGGTGAAATAGTTGCCCTGACGTGGCTTTGGGGAGATAATTTCTCCAGGGTAATTATTTCTCTA (double strand) [Ppf4r-doubleSNP] | no binding | 
Pf6r, repressor of the Pf6 filamentous phage (wild type) (natural protein) |  | stoichiometry N [3]: 2
TTTTGGGGCCGATTTTCTTGATTAATAGTCTTGCTCTATCGGCTGACGTGCTCATATAGAAATTTATTCCGGGGAAATAGTTGCCCTGACGTGGCTTTGGGGAAATAATTTCTCCAGGGTAATTATTTCTCTA (double strand) [Ppf4r] |  | binding ([1]; EMSA: 10 mM Tris, 1 mM DTT, 2.5% glycerol, 5 ug/uL BSA, 0.05% NP-40, 80 mM KCl, 5 mM MgCl2, 2 mM EDTA, 10 fmol probe, 30 min, 30 C (protein diluted in TE pH …)): binds
TTTTGGGGCCGATTTTCTTGATTAATAGTCTTGCTCTATCGGCTGACGTGCTCATATAGAAATTTATTCCGGGGAAATAGTTGCCCTGACGTGGCTTTGGGGAGATAATTTCTCCAGGGTAATTATTTCTCTA (double strand) [Ppf4r-A>G] | no binding | 
